Measured values reported in publication PMC5057311.

Columns and labels:
[1] = molecular target: CD80 on cynomolgus monkey blood cells (cynomolgus monkey (endogenous in blood cells)); experiment: flow cytometry on cells
[2] = molecular target: CD86 on cynomolgus monkey blood cells (cynomolgus monkey (endogenous in blood cells)); experiment: flow cytometry on cells

percent free CD80 of predose, Day 14, high dose (3 mg/kg) [1]: 3%
percent free CD80 of predose, Day 14, middle dose (0.3 mg/kg) [1]: 42%
percent suppression of free CD80 upon administration (all dose groups) [1]: > 90%
serum CTLA4‐Ig concentration at ∼90% target suppression [1]: 0.18 µg/mL
percent free CD86 of predose, 4 h after the low dose (0.03 mg/kg) [2]: 67%
serum CTLA4‐Ig concentration at ∼90% target suppression [2]: 33 µg/mL
Substance: CTLA4‐Ig recombinant fusion protein (from UniProt P16410 36-161) (Fc fusion)
